Experimental data reported in patent US8603987 (GALAXY BIOTECH, dated 2013).
Blank lines part the entries; values can stand above or below the binder they belong to.

What was measured:
[1] = molecular target: T1, human FGFR2IIIb-Fc (alpha form, entire ECD amino acids 1-378 fused to human Fc) (human, UniProt P21802-3 22-378); test: ELISA, FGFR2IIIb-Fc captured by anti-human IgG-Fc
T1 construct: range 1-378; Secreted from 293F cells and purified on protein A/G; not shown: human Fc, residues 216 to 446
Procedure: (§1) To determine the ability of the mAbs to bind to FGFR2 from species other than human, ELISA assays were used. ELISA wells were coated with 2 µg/ml of goat anti-human IgG-Fc overnight at 4° C. After blocking with 2% BSA for 1 hr at RT, the wells were incubated with 0.2 µg/ml of FGFR2IIIb-Fc for 1 hr, where the FGFRIIIb in the fusion protein was either human, mouse, cynomolgus monkey or chimpanzee FGFRIIIb. The wells were then incubated with various concentrations of GAL-FR21 or GAL-FR22 mAb. The bound mAbs were detected by addition of HRP-conjugated goat anti-mouse IgG-Fc and then TMB substrate. […] A similar experiment with chimpanzee FGFR2 gave the same results as with cynomolgus monkey FGFR2: GAL-FR21 bound to chimpanzee FGFR2 as well as (indistinguishably from) human FGFR2, while GAL-FR22 bound to chimpanzee FGFR2 moderately well (within about 100-fold of human FGFR2). […] Binding to FGFR2 from such other species makes testing of the mAbs in those animal species easier to conduct.

[2] = molecular target: T2, Chimpanzee FGFR2IIIb-Fc (human FGFR2IIIb ECD with residue 186 methionine to threonine, fused to human Fc) (chimpanzee; human, UniProt P21802-3 22-378); test: ELISA, FGFR2IIIb-Fc captured by anti-human IgG-Fc
T2 construct: range 1-378; Built from the human FGFR2IIIb-Fc construct; also called chimp FGFR2IIIb; not shown: human Fc, residues 216 to 446
Procedure: as §1

[3] = molecular target: T3, FGFR2IIIb(S252W) on transfected human 293F cells (UniProt P21802-3 22-822); test: flow cytometry on 293F cells transfected with FGFR2IIIb(S252W)
T3 construct: whole, on cells
Procedure: (§2) Flow cytometry. After washing twice in cell sorting buffer (CSB: PBS/1% FBS/0.02% NaN_3), 2×10^5 cells were resuspended in 50 µl of CSB in a microtiter well and incubated with 50 µl of the anti-FGFR2 mAb to be tested (1 µg/50 µl) for 1 hr on ice. Cells were then washed twice in CSB and the bound antibodies detected by incubation with FITC-goat anti-mouse IgG (Jackson ImmunoResearch Laboratories) for 1 hr on ice. After washing twice in CSB, cells were analyzed on a FACScan (Becton Dickinson).
(§3) To confirm that the selected mAbs bind to the appropriate forms of FGFR2 on the cell membrane, flow cytometry was employed. KATO-III (ATCC HTB-103) and SNU-16 (ATCC CRL-5974) cells, which overexpress FGFR2IIIb, were used to test binding to that form of the receptor. […] Human 293F cells transfected with a gene for FGFRIIIc were used to test binding to that form, after verifying that none of the mAbs bind to the host 293F cells themselves. […] Finally, since the S252W mutation of FGFR2 is found in some cancer cells, binding of the mAbs to 293F cells transfected with an FGFR2IIIb gene constructed to contain that mutation (FGFR2IIIb(S252W)) was tested. As also seen in FIG. 7, all the mAbs bound to the FGFR2IIIb(S252W)-transfected cells. The ability to bind FGFR2IIIb(S252W) is a preferred property of mAbs of the invention.

[4] = molecular target: T4, FGFR2IIIc on transfected human 293F cells (UniProt P21802 22-821); test: flow cytometry on 293F cells transfected with FGFRIIIc
T4 construct: whole, on cells; also called FGFRIIIc
Procedure: as §2, §3

[5] = molecular target: T5, FGFR2IIIb on KATO-III and SNU-16 human gastric tumor cells (human, UniProt P21802-3 22-822); test: flow cytometry on KATO-III and SNU-16 cells overexpressing FGFR2IIIb
T5 construct: whole, on cells; Endogenous receptor of human tumor cell lines; also called FGFR2IIIb on the cell membrane
Procedure: as §2, §3

[6] = molecular target: T6, human FGFR2(beta)IIIb-Fc (amino acids 152-378, missing D1, fused to human Fc) (human, UniProt P21802-3 152-378); test: ELISA on the four FGFR2-Fc forms, fixed mAb concentration
T6 construct: range 152-378; The signal peptide used for secretion of the beta form is not described; also called beta form of FGFR2IIIb; not shown: human Fc, residues 216 to 446
Procedure: ELISA assay for mAb binding to FGFR2 fusion protein. ELISA plates were coated with goat anti-human IgG-Fc (2 µg/ml) overnight at 4° C. Then nonspecific binding sites were blocked with 2% BSA for 1 hr at RT. Plates were incubated with one of the FGFR2 fusion proteins described above (1 µg/ml) for 1 hr, followed by incubation with various concentrations of mAbs or hybridoma culture fluids for 1 hr. The bound mAb was detected with HRP-Goat anti-mouse antibody followed by washing, addition of TMB substrate (Sigma) and reading at 450 nm. In all ELISA assays, plates were washed 3 times between each step.
Figure 3: FIG. 3. Binding ELISA of mAbs GAL-FR21, GAL-FR22 and GAL-FR23 and negative control mIgG to FGFR2IIIb. Figure 4: FIG. 4. Binding ELISA of mAbs GAL-FR21, GAL-FR22 and GAL-FR23 and negative control mouse mAb 5G8 to each of the four forms of FGFR2—FGFR2IIIb, FGFR2(beta)IIIb, FGFR2(IIIc) and FGFR2(beta)IIIc—as fusion proteins with Fc. A fixed concentration of each mAb was used in the assay.

[7] = molecular target: T1, human FGFR2IIIb-Fc (alpha form, entire …); test: estimate from the 50% inhibition point of the competition ELISA on FGFR2IIIb-Fc against biotinylated GAL-FR21
Procedure: To compare the binding affinity of HuGAL-FR21 with that of the mouse mAb GAL-FR21, a competitive binding experiment was performed using standard ELISA technology. Specifically, ELISA wells were coated with 2 μg/ml of goat anti-human IgG-Fc overnight at 4° C. After blocking with 2% BSA for 1 hr at RT, the wells were incubated with 0.5 μg/ml of FGFR2IIIb-Fc. The wells were then incubated with biotinylated GAL-FR21 mAb (0.05 μg/ml) in the presence of increasing concentrations of unlabeled GAL-FR21, HuGAL-FR21 or control human antibody hIgG. The level of biotinylated GAL-FR21 bound was determined by the addition of HRP-streptavidin and substrate. […] HuGAL-FR21 may also be tested in any of the biological assays for FGFR2 activity described herein, e.g., inhibition of binding of FGF2 or FGF7 to FGFR2, and will inhibit FGFR2 activity comparably to GAL-FR21.

T1 sequence (P21802 other isoform, or with tags, fused parts or gaps): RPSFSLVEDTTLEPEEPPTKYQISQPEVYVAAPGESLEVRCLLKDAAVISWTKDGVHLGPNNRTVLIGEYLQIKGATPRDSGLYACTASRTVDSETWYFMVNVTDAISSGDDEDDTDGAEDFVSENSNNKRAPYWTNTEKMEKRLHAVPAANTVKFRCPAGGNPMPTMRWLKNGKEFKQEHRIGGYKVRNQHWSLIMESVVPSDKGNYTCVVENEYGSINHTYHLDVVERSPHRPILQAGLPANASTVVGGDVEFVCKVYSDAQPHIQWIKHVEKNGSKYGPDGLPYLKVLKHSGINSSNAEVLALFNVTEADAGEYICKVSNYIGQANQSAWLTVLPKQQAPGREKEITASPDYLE
T4 sequence (P21802 22-821): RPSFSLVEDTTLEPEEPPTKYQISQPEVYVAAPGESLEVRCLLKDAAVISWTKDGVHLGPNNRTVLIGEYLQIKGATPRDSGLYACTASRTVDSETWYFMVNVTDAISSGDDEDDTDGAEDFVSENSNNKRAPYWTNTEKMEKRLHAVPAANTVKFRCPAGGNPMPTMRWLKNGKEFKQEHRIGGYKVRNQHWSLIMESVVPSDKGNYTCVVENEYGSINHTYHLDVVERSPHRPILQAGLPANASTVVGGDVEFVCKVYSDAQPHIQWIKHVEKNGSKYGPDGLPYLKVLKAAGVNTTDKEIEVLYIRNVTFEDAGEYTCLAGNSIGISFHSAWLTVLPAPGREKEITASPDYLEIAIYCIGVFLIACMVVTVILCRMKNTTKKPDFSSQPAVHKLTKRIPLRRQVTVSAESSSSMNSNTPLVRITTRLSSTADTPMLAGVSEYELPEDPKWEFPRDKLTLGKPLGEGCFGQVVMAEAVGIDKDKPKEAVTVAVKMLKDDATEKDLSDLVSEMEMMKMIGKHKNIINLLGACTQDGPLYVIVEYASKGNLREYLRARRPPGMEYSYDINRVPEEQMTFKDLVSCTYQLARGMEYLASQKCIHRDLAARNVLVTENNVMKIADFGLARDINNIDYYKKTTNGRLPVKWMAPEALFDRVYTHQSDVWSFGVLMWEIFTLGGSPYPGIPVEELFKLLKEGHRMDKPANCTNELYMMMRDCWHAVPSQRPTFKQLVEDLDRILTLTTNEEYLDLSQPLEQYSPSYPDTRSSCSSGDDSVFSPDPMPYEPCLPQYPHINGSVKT
T6 sequence (P21802 other isoform, or with tags, fused parts or gaps): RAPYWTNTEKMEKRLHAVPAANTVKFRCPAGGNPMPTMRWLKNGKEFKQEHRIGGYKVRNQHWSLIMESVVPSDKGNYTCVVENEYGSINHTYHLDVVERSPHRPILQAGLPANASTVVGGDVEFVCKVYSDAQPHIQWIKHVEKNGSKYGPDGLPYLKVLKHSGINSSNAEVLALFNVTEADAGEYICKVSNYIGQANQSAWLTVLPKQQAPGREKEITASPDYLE
T2 sequence (P21802 other isoform, or with tags, fused parts or gaps): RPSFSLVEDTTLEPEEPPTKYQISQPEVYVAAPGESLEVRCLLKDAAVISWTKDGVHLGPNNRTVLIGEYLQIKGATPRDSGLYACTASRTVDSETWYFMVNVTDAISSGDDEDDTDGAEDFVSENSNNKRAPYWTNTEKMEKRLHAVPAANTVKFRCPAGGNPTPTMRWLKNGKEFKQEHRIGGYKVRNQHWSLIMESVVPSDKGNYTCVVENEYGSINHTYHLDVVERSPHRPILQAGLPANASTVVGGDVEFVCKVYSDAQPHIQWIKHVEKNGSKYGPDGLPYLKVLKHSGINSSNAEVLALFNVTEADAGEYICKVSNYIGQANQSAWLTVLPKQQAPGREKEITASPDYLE
T5 sequence (P21802 other isoform, or with tags, fused parts or gaps): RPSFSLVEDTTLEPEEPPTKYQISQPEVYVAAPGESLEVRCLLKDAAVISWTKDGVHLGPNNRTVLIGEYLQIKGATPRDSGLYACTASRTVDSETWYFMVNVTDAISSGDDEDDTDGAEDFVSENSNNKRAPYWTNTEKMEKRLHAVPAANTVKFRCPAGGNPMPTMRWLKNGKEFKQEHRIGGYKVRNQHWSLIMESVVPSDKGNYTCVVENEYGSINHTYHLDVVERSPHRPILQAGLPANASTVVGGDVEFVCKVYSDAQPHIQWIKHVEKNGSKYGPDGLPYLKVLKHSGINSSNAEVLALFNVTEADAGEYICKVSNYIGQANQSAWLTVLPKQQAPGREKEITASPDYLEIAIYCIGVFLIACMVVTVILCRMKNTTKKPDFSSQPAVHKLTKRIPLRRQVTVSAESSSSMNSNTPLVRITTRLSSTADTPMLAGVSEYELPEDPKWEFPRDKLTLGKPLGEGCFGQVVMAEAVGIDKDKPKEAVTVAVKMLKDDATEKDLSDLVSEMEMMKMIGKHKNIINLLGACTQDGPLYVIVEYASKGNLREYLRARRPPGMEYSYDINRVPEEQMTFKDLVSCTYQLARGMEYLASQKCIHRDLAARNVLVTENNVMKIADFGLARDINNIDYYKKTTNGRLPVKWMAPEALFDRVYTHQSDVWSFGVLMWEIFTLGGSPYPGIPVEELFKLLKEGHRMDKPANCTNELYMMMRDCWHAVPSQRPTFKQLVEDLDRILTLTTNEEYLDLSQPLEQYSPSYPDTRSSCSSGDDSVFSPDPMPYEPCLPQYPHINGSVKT
T3 sequence (P21802 other isoform, or with tags, fused parts or gaps S252W S252W): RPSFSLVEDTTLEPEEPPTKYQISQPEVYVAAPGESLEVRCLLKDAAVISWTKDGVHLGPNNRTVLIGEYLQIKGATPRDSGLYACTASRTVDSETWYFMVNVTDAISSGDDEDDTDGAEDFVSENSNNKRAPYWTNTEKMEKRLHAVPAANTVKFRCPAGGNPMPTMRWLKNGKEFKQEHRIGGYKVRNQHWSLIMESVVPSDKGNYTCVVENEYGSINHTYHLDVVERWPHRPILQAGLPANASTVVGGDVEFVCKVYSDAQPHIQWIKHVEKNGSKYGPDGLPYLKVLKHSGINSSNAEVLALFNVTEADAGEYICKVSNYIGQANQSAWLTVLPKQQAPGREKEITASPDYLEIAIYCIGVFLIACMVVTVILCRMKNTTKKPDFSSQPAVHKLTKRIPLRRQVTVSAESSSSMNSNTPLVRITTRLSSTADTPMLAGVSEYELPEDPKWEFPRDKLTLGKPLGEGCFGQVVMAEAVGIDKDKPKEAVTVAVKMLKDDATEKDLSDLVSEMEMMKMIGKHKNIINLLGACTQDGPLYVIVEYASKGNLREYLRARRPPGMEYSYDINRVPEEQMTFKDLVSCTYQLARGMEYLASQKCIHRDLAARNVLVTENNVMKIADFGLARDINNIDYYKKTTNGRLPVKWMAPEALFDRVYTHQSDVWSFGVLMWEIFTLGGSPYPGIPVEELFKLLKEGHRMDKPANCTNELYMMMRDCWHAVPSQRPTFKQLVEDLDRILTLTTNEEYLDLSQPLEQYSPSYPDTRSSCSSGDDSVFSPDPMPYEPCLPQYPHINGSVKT

binding result [1]: binds | binding result [2]: binds | binding result [3]: binds | binding result [4]: binds | binding result [5]: binds | binding result [6]: binds
B1: GAL-FR22 (antibody, V domains shown)
VH: QVQLKQSGPGLVQPSQSLSITCTVSGFSLTSFGVHWVRQSPGKGLEWLGVIWSGGSTDYNADFRSRLSISKDNSKSQIFFKMNSLQPDDTAIYYCANFYYGYDDYVMDYWGQGTSVTVSS
VL: DIQMTQSPSSLSASLGGRVTITCKASQDIKNYIAWYQHKPGKSPRLLIHYTSTLQPGVPSRFSGSGSGRDYSFSISNLEPEDIATYYCLQYDDLYMFGGGTKLDIK
notes: Mouse monoclonal antibody from a hybridoma; also called GAL-FG22; ATCC PTA-9587

Ka [7]: ≥ 1e+09 M⁻¹
B2: HuGAL-FR21 (antibody, human IgG1, kappa, V domains shown)
VH: QVQLVQSGAEVKKPGSSVKVSCKASGYIFTTYNVHWVRQAPGQGLEWIGSIYPDNGDTSYNQNFKGRATITADKSTSTAYMELSSLRSEDTAVYYCARGDFAYWGQGTLVTVSS
VL: DIQMTQSPSSLSASVGDRVTITCKASQGVSNDVAWYQQKPGKAPKLLIYSASYRYTGVPSRFSGSGSGTDFTFTISSLQPEDIATYYCQQHSTTPYTFGQGTKLEIKR
notes: Humanized IgG1, kappa; also called humanized GAL-FR21

binding result [1]: binds | binding result [2]: binds | binding result [3]: binds | binding result [4]: no binding (tested: 1 µg/50 µl) | binding result [5]: binds | binding result [6]: binds
B3: GAL-FR21 (antibody, V domains shown)
VH: QVQLQQPGAEVVKPGASVKMSCKASGYIFTTYNVHWVKQTPGQGLEWIGSIYPDNGDTSYNQNFKGKATLTADKSSSTAYIQLSSLTSEDSAVYYCARGDFAYWGQGTLVTVSV
VL: NIVMTQSPKSMSMSVGDRVSITCKASQGVSNDVAWYQKKPGQSPKLLIYSASYRYTGVPDRFTGSGSGTDFTFTISNVQAEDLAVYYCQQHSTTPYTFGGGTKLEIK
notes: Mouse monoclonal antibody from a hybridoma; also called mouse GAL-FR21; ATCC PTA-9586
